# B1: CD33-(K334C/K392C) antibody (unconjugated) (antibody, human IgG1)
# heavy: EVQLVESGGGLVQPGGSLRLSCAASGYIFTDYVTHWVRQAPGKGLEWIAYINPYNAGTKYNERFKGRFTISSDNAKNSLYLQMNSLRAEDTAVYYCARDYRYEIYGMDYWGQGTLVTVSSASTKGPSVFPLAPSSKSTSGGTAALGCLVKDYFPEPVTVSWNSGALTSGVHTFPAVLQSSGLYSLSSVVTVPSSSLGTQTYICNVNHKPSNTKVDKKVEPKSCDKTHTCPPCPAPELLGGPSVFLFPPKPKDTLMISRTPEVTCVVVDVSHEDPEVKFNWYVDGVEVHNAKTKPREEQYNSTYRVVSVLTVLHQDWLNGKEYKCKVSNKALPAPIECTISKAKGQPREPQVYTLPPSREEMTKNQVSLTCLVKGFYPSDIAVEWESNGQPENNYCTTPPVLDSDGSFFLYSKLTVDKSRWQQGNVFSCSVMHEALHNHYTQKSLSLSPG
# light: DIQLTQSPSSLSASVGDRVTITCRASSSVGYMHWYQQKPGKAPKLLIYDTSQLASGVPSRFSGSGSGTDFTLTISSLQPEDFATYYCQLWSSNPLTFGGGTKVEIKRTVAAPSVFIFPPSDEQLKSGTASVVCLLNNFYPREAKVQWKVDNALQSGNSQESVTEQDSKDSTYSLSSTLTLSKADYEKHKVYACEVTHQGLSSPVTKSFNRGEC
# notes: Human IgG1 with engineered Cys at heavy chain positions 334 and 392 (Eu index of Kabat); also called CD33-(K334C/K392C)-human IgG1 antibody
# B2: CD33-(K334C/K392C)-CPI (CD33-(K334C/K392C)-MalPeg6-vc-PABC-DMAE-CPI ADC) (antibody, human IgG1)
# heavy: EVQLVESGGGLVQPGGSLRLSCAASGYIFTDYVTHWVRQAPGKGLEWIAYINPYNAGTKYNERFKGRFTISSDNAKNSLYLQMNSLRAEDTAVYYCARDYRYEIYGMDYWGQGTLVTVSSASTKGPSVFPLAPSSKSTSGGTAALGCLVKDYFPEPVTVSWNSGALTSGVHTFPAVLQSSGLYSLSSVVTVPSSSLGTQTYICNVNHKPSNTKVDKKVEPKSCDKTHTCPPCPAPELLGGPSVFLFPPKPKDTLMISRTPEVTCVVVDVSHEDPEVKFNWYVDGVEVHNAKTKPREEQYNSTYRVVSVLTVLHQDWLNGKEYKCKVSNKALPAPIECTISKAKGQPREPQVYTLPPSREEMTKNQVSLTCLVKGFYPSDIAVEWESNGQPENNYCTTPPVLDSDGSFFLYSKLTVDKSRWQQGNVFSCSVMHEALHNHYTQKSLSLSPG
# light: B1 light
# modifications: linker-payload MalPeg6-vc-PABC-DMAE-CPI (LP7) on engineered Cys 334 and Cys 392 (Eu index of Kabat); DAR 4.0
# notes: Antibody drug conjugate, human IgG1
# Assays:
# [1] = target: T1, human Fc-gamma receptor I (CD64) (human, UniProt P12314 16-288, limits assumed); test: SPR (BIAcore), antibody captured on immobilized CD33 ECD, receptor injected; kinetic fit
# T1 construct: Soluble receptor injected over captured antibody; also called FcγRI (CD64)
# T1 sequence (P12314 16-288 limits assumed): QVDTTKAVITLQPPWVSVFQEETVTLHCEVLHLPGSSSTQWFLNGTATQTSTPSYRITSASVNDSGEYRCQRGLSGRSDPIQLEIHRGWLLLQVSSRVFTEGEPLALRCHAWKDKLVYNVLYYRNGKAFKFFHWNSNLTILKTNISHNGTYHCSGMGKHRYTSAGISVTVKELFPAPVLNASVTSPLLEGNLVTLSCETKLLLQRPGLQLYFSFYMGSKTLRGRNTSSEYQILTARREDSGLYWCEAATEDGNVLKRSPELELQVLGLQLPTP
# Protocol: (§1) Various concentrations of the Fcγ receptors FcγIIa (CD32a), FcγIIb(CD32b), FcγIIIa (CD16a) and FcγRI (CD64) were injected over the surface and binding was determined.
# [2] = target: T2, human Fc-gamma receptor IIa (CD32a) (human, UniProt P12318 34-217); test: SPR (BIAcore), antibody captured on immobilized CD33 ECD, receptor injected; steady state fit
# T2 construct: Soluble receptor injected over captured antibody; also called FcγIIa (CD32a)
# T2 sequence (looked up): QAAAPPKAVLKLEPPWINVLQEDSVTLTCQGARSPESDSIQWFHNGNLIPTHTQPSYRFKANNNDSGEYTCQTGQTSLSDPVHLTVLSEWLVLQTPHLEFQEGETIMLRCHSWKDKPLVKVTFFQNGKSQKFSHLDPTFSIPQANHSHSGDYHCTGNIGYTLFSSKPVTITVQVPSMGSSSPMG
# Protocol: as §1
# [3] = target: T3, human Fc-gamma receptor IIb (CD32b) (human, UniProt P31994 43-217); test: as above
# T3 construct: Soluble receptor injected over captured antibody; also called FcγIIb(CD32b)
# T3 sequence (looked up): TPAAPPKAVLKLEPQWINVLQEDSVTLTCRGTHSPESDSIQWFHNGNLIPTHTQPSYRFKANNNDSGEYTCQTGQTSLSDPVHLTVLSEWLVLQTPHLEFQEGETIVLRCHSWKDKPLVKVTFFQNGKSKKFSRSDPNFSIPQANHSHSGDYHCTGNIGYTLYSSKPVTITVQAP
# Protocol: as §1
# [4] = target: T4, human Fc-gamma receptor IIIa (CD16a) (human, UniProt P08637 17-208); test: as above
# T4 construct: Soluble receptor injected over captured antibody; also called FcγIIIa (CD16); FcγIIIa (CD16a)
# T4 sequence (P08637 17-208 limits assumed): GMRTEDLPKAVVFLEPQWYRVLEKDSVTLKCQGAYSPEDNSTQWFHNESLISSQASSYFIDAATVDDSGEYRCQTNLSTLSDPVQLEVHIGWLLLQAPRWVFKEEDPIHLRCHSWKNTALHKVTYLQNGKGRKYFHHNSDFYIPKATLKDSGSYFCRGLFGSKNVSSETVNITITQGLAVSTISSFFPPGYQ
# Protocol: as §1
# [5] = target: T5, human FcRn, biotinylated through an engineered Avi-tag (human, UniProt P55899 24-297; P61769 21-119); test: SPR (BIAcore), steady-state, pH 6.0; biotinylated human FcRn on streptavidin chip, antibody injected
# T5 construct: not shown: engineered Avi-tag
# T5 sequence (P55899 24-297 limits assumed, change not shown, chain 1 of 2): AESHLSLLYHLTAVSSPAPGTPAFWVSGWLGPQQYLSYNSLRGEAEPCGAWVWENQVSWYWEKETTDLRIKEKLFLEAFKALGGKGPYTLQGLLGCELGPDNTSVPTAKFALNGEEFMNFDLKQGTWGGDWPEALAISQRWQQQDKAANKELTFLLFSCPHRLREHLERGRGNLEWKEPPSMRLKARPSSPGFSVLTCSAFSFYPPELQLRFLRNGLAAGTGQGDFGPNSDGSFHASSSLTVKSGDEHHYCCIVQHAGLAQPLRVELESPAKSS
# T5 sequence (P61769 21-119 limits assumed, change not shown, chain 2 of 2): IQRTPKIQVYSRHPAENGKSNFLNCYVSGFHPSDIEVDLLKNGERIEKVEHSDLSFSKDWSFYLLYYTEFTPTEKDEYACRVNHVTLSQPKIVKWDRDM
# [6] = target: T1, human Fc-gamma receptor I (CD64); test: SPR (BIAcore), ADC captured on immobilized CD33 ECD, receptor injected; kinetic fit
# Protocol: as §1
# [7] = target: T2, human Fc-gamma receptor IIa (CD32a); test: SPR (BIAcore), ADC captured on immobilized CD33 ECD, receptor injected; steady state fit
# Protocol: as §1
# [8] = target: T3, human Fc-gamma receptor IIb (CD32b); test: as above
# Protocol: as §1
# [9] = target: T4, human Fc-gamma receptor IIIa (CD16a); test: as above
# Protocol: as §1
# [10] = target: T5, human FcRn, biotinylated through an …; test: SPR (BIAcore), steady-state, pH 6.0; biotinylated human FcRn on streptavidin chip, ADC injected
# Description: BIAcore® technology utilizes changes in the refractive index at the surface layer of a sensor upon binding of the anti-CD33 derived monoclonal antibodies or their respective ADCs to human FcRn protein immobilized on the layer. Binding was detected by surface plasmon resonance (SPR) of laser light refracting from the surface. Human FcRn was specifically biotinylated through an engineered Avi-tag using the BirA reagent (Catalog #: BIRA500, Avidity, LLC, Aurora, Colo.) and immobilized onto a streptavidin (SA) sensor chip to enable uniform orientation of the FcRn protein on the sensor.
Binder,Kd [1] [nM],Kd [2] [nM],Kd [3] [nM],Kd [4] [nM],Kd [5] [nM],Kd [6] [nM],Kd [7] [nM],Kd [8] [nM],Kd [9] [nM],Kd [10] [nM]
B1,0.02,900,3460,210,964,,,,,
B2,,,,,,0.17,12900,20100,5650,1220

# From US20190099499A1 (Pfizer, published 2019)
